These are literature values, as cited in PMC3359286.

In this data set the target is hemoglobin (Homo sapiens) (UniProt P69905).
Sequence of hemoglobin (Homo sapiens) (P69905 2-142, chain 1 of 2): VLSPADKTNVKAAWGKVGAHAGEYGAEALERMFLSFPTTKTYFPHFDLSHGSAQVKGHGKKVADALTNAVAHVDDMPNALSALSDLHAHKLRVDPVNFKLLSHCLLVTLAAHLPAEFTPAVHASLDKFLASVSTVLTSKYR
Sequence of hemoglobin (Homo sapiens) (P68871 2-147, chain 2 of 2, further chain): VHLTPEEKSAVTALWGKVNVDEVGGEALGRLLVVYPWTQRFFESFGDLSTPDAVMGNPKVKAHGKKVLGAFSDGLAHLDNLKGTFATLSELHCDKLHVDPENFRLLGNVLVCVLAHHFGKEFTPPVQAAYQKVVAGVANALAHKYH

Broadly, the Kd is the concentration at which binding is half-saturated. In the case of IsdB (from UniProt A7X146), the Kd was 55 nM.
